Data on five variants can be found in IntAct's records for PubMed 23219551.

B1: DNA ligase 4 (Homo sapiens), P49917 (parent)
chain: MAASQTSQTVASHVPFADLCSTLERIQKSKGRAEKIRHFREFLDSWRKFHDALHKNHKDVTDSFYPAMRLILPQLERERMAYGIKETMLAKLYIELLNLPRDGKDALKLLNYRTPTGTHGDAGDFAMIAYFVLKPRCLQKGSLTIQQVNDLLDSIASNNSAKRKDLIKKSLLQLITQSSALEQKWLIRMIIKDLKLGVSQQTIFSVFHNDAAELHNVTTDLEKVCRQLHDPSVGLSDISITLFSAFKPMLAAIADIEHIEKDMKHQSFYIETKLDGERMQMHKDGDVYKYFSRNGYNYTDQFGASPTEGSLTPFIHNAFKADIQICILDGEMMAYNPNTQTFMQKGTKFDIKRMVEDSDLQTCYCVFDVLMVNNKKLGHETLRKRYEILSSIFTPIPGRIEIVQKTQAHTKNEVIDALNEAIDKREEGIMVKQPLSIYKPDKRGEGWLKIKPEYVSGLMDELDILIVGGYWGKGSRGGMMSHFLCAVAEKPPPGEKPSVFHTLSRVGSGCTMKELYDLGLKLAKYWKPFHRKAPPSSILCGTEKPEVYIEPCNSVIVQIKAAEIVPSDMYKTGCTLRFPRIEKIRDDKEWHECMTLDDLEQLRGKASGKLASKHLYIGGDDEPQEKKRKAAPKMKKVIGIIEHLKAPNLTNVNKISNIFEDVEFCVMSGTDSQPKPDLENRIAEFGGYIVQNPGPDTYCVIAGSENIRVKNIILSNKHDVVKPAWLLECFKTKSFVPWQPRFMIHMCPSTKEHFAREYDCYGDSYFIDTDLNQLKEVFSGIKNSNEQTPEEMASLIADLEYRYSWDCSPLSMFRRHTVYLDSYAVINDLSTKNEGTRLAIKALELRFHGAKVVSCLAEGVSHVIIGEDHSRVADFKAFRRTFKRKFKILKESWVTDSIDKCELQEENQYLI

The variants in this test derive from B1. Conditions: with dcr1c_human DCLRE1C.
For the variant F42A, the “effect of a mutation on the interaction” value is reported as “disrupting interaction strength”.

D18H: the “effect of a mutation on the interaction” value is given as “decreasing interaction strength”. The value for F42A;F49A was “disrupting interaction strength”; that for V14A was “decreasing interaction strength”. On to F49A, for which the “effect of a mutation on the interaction” value was “disrupting interaction strength”.
